Results on 4 molecules are retold here after PMC5916898, “Global profiling of protein–DNA and protein–nucleosome binding affinities using quantitative mass spectrometry”.

The chains are these.
B1: TEAD (dsDNA)
DNA 1: TCGGGACCCAGGCCTGGAATGTTTCCACC
DNA 2: GGTGGAAACATTCCAGGCCTGGGTCCCGA
B2: CTCF (dsDNA)
DNA 1: TCAGAGTGGCGGCCAGCAGGGGGCGCCCTTGCCAGA
DNA 2: TCTGGCAAGGGCGCCCCCTGCTGGCCGCCACTCTGA
B3: SP/KLF wild-type (dsDNA)
DNA 1: GAGAGCCCCGCCCCCTGGCT
DNA 2: AGCCAGGGGGCGGGGCTCTC
B4: TATA-box (dsDNA)
DNA 1: GCGGCGCTCTATATAAGTGGGCAGTG
DNA 2: CACTGCCCACTTATATAGAGCGCCGC

Chain of ZBTB7A (O95365 whole entry): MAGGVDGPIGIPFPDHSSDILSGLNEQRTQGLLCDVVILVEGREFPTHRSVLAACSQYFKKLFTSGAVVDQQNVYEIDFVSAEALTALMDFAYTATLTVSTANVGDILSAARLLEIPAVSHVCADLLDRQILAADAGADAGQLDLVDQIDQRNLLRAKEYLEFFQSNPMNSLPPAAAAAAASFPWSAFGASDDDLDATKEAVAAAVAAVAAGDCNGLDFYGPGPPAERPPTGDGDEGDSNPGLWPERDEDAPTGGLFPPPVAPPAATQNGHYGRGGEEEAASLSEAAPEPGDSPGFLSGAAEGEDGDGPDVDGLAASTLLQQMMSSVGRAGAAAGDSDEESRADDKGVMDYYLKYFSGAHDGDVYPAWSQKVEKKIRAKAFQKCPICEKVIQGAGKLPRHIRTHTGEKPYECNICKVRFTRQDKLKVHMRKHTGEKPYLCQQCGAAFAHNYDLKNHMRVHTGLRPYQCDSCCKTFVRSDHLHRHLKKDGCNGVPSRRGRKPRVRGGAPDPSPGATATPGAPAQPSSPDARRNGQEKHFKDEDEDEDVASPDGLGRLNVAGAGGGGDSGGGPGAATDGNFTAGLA
Chain of KLF4 (O43474 whole entry): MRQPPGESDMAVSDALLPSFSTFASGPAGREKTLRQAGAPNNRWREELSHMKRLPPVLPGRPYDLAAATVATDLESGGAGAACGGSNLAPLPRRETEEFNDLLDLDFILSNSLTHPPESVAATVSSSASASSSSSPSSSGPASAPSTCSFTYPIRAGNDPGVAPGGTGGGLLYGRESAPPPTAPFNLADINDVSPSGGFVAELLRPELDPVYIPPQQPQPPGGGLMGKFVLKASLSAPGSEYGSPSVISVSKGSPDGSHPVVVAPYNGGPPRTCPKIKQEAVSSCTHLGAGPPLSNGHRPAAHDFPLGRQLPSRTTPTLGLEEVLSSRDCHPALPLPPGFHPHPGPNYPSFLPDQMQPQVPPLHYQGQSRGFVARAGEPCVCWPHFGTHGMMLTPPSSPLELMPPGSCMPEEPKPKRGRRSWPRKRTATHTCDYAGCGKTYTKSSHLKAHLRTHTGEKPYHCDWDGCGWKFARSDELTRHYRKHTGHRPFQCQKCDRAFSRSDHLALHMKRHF
Chain of KLF16 (Q9BXK1 whole entry): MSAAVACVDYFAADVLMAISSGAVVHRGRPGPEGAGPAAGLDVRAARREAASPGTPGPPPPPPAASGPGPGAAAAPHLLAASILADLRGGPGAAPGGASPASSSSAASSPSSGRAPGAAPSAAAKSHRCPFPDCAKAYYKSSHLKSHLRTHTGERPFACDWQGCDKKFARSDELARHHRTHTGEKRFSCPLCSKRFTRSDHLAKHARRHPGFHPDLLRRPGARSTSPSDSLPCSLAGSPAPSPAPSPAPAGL
Chain of SP1 (P08047 whole entry): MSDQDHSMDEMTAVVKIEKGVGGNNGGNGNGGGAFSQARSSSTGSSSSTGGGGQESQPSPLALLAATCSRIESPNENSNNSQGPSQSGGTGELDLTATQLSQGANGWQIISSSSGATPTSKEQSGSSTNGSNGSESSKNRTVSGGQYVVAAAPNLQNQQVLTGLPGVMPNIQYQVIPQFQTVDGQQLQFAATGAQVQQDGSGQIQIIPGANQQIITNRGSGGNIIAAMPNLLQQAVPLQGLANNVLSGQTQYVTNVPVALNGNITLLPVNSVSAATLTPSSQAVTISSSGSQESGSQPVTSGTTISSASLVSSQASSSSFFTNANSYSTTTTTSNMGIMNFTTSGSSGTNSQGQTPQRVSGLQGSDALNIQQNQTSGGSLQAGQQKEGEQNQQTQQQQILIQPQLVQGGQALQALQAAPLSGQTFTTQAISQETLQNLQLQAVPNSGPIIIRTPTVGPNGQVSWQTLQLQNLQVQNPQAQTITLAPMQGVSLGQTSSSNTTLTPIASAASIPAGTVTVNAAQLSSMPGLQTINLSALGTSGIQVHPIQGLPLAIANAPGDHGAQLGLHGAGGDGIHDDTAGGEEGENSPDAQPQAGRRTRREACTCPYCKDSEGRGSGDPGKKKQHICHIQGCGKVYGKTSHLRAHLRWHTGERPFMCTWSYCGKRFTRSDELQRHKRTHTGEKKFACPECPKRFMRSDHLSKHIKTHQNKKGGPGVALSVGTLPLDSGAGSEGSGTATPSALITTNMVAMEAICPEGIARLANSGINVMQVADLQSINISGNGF

The first data set concerns the target ZBTB7A (Homo sapiens, UniProt O95365). Description: pulldown; 150 mM NaCl, 50 mM Tris pH 8, 0.25% NP-40, 1 mM TCEP; 4 C, 2 h; 100 ug HeLa nuclear lysate. The conditions noted are these: protein: extract; label: 5' biotin (strand 1).
Regarding B1, the “apparent K (half saturation)” value turned out to be 129 nM.
As for B2, the “apparent K (half saturation)” value was 38.9 nM.
With B3, the “apparent K (half saturation)” value is 174 nM.
With B4, the “apparent K (half saturation)” value came to 258 nM.

Another data set has as its target SP1 (Homo sapiens, UniProt P08047). Described as above. The conditions noted are these: protein: extract; label: 5' biotin (strand 1).
Regarding B2, the “apparent K (half saturation)” value was determined as 86.9 nM.
Same read-out and setting: the same measure for B3: 38 nM; for B4: 284 nM.

The target in the next data set is TFAP2A (Homo sapiens, UniProt P05549). The data set is described as above. The settings on record: protein: extract; label: 5' biotin (strand 1).
Chain of TFAP2A (P05549 whole entry): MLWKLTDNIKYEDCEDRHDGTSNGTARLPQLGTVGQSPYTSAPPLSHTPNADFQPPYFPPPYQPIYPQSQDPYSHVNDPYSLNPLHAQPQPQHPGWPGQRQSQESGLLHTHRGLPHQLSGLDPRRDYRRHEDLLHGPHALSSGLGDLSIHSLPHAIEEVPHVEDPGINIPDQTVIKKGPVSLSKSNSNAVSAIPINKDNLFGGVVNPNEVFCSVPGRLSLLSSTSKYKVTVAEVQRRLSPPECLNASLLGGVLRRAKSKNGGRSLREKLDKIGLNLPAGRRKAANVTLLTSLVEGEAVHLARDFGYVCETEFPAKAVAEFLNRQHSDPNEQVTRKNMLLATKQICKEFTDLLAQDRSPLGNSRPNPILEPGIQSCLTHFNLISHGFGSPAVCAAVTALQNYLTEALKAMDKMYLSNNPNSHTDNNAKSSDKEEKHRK
Consider B1, for which the “apparent K (half saturation)” value is 193 nM.
Same read-out and setting: with B2 the figure was 83.3 nM.
Same read-out and setting: with B3 the figure was 196 nM.
Turning to B4, the “apparent K (half saturation)” value stood at 328 nM.

The next data set concerns the target KLF16 (Homo sapiens, UniProt Q9BXK1). The data set is described as above. The settings on record: protein: extract; label: 5' biotin (strand 1).
In the case of B2, the “apparent K (half saturation)” value was determined as 109 nM.
On the same count and under the same terms, the same measure for B3: 14.5 nM.
On the same count and under the same terms, the same measure for B4: 151 nM.

In a further data set the target is KLF5 (Homo sapiens, UniProt Q13887). The data set is described as above. The settings on record: protein: extract; label: 5' biotin (strand 1).
Chain of KLF5 (Q13887 whole entry): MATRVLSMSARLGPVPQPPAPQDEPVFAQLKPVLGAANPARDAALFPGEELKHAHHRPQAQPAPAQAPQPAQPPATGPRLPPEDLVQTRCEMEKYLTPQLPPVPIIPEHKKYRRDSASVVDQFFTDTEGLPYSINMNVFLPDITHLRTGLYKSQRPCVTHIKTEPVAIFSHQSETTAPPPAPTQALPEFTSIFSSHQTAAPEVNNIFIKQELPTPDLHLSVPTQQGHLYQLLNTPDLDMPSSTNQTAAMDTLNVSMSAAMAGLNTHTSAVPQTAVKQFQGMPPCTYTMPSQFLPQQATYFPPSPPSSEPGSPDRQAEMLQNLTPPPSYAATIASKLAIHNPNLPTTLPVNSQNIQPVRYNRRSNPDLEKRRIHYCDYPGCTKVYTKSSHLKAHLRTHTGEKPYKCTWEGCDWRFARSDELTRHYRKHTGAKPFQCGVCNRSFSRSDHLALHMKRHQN
With B1, the “apparent K (half saturation)” value stood at 101 nM.
With B2, the “apparent K (half saturation)” value was 25.3 nM.
Consider B3, for which the “apparent K (half saturation)” value is 37 nM.
Take B4: the “apparent K (half saturation)” value was found to be 219 nM.

The next data set addresses KLF4 (Homo sapiens, UniProt O43474). The description is as above. The settings on record: protein: extract; label: 5' biotin (strand 1).
As to B2, the “apparent K (half saturation)” value came to 26.3 nM.
The same measure, in the same setting: with B3 the figure was 79.3 nM; with B4, 159 nM.

The next data set concerns the target T1, VEZF1 (Homo sapiens, UniProt Q14119).
T1 sequence: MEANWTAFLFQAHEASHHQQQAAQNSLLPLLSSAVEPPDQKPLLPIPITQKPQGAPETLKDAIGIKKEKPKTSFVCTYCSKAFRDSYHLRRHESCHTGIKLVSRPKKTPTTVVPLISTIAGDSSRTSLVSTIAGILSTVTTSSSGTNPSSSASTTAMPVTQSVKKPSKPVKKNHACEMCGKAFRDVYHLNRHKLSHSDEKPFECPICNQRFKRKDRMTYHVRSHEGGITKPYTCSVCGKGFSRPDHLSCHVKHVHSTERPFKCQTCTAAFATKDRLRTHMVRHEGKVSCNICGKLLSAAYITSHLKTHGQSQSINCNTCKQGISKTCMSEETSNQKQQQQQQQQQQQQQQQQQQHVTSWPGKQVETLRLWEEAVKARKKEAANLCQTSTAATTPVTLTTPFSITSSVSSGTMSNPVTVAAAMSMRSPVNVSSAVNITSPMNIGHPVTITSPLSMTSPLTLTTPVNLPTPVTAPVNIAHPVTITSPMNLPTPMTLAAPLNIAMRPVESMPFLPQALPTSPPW
Described as above. The settings on record: protein: extract; label: 5' biotin (strand 1).
For B1, the “apparent K (half saturation)” value amounted to 225 nM.
Same read-out and setting: the same measure for B2: 34.1 nM; for B3: 182 nM.
The same measure, in the same setting: with B4 the figure was 227 nM.

Another data set deals with T2, BBX (Homo sapiens, UniProt Q8WY36).
T2 sequence: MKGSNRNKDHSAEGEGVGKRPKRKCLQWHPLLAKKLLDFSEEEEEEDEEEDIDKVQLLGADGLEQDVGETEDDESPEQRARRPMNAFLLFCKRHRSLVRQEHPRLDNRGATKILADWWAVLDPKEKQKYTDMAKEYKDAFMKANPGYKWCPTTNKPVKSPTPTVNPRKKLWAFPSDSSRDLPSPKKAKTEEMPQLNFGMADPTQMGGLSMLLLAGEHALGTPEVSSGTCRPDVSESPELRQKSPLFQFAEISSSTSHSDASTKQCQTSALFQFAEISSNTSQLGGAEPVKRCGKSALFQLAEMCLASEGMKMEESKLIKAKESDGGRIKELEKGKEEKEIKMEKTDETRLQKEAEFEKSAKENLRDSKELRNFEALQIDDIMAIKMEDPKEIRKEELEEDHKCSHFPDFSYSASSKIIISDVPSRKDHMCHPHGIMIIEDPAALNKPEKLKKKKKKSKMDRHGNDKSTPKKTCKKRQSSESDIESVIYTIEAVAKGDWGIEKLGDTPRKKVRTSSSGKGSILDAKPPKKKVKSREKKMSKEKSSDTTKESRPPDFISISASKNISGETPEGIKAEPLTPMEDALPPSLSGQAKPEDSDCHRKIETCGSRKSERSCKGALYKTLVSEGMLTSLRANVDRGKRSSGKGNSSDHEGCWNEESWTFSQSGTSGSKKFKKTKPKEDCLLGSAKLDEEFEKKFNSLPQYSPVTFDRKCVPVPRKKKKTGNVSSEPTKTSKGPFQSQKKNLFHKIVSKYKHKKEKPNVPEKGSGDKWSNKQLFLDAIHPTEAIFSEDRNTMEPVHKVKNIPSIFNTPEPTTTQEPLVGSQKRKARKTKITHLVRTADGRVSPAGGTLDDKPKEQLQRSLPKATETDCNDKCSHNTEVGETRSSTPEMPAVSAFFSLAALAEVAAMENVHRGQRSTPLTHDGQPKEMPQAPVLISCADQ
The data set is described as above. The settings on record: protein: extract; label: 5' biotin (strand 1).
In the case of B1, the “apparent K (half saturation)” value amounted to 390 nM.
For the molecule B2, the “apparent K (half saturation)” value amounted to 308 nM.
Regarding B4, the “apparent K (half saturation)” value came to 405 nM.
